Consider 75 variants from paper PMC12102759 (2025).

Sequences and labels used below:
B1: CBL peptide 540-555 (E3 ubiquitin-protein ligase CBL), 16-mer library wild type / YES SH3 (YES1 SH3 domain, residues 90-152) (parent complex)
chain 1: RDLPPPPPPDRPYSVG
chain 2: not shown
B2: ATXN2 peptide 913-928 (Ataxin-2), 16-mer library wild type / PABPC1 PABC (PABPC1 PABC domain, residues 544-623) (parent complex)
chain 1: TLNPNAKEFNPRSFSQ
chain 2: PLTASMLASAPPQEQKQMLGERLFPLIQAMHPTLAGKITGMLLEIDNSELLHMLESPESLRSKVDEAVAVLQAHQAKEAA

Variants of B1 are the subject of the first test. Description: proteomic peptide phage display deep mutational scan (ProP-PD DMS): M13 P8 16-mer library selected against immobilised GST-tagged bait for four days (rounds), NGS of the eluted pools per day and pseudo-replica; bait immobilised on MaxiSorp plates (10 µg), library pre-cleared on GST, 2 h binding at 4 °C, five washes; one round per day, days 1-4; value from days 2 and 3.
Consider chain 1 R11I, for which the screen value was 0.000246 average fractional NGS count over selection days 2 and 3 (reads of this peptide / all reads for the bait, averaged over ….
Still for that read-out and setting: in the case of chain 1 R11Y it was 0.000176 average fractional NGS count over selection days 2 and 3 (reads of this peptide / all reads for the bait, averaged over …; in that of chain 1 Y13N, 0.00025 average fractional NGS count over selection days 2 and 3 (reads of this peptide / all reads for the bait, averaged over ….
On the same count and under the same terms, in the case of chain 1 Y13S it was 0.00123 average fractional NGS count over selection days 2 and 3 (reads of this peptide / all reads for the bait, averaged over ….
Same read-out and setting: in the case of chain 1 Y13H it was 0.000183 average fractional NGS count over selection days 2 and 3 (reads of this peptide / all reads for the bait, averaged over …; in that of chain 1 V15F, 0.00636 average fractional NGS count over selection days 2 and 3 (reads of this peptide / all reads for the bait, averaged over ….
Turning to chain 1 V15R, the screen value was 7.8e-05 average fractional NGS count over selection days 2 and 3 (reads of this peptide / all reads for the bait, averaged over ….
Still for that read-out and setting: in the case of chain 1 V15Y it was 0.00192 average fractional NGS count over selection days 2 and 3 (reads of this peptide / all reads for the bait, averaged over …; in that of chain 1 P12D, 0.00117 average fractional NGS count over selection days 2 and 3 (reads of this peptide / all reads for the bait, averaged over ….
Still for that read-out and setting: in the case of chain 1 P12W it was 0.00363 average fractional NGS count over selection days 2 and 3 (reads of this peptide / all reads for the bait, averaged over …; in that of chain 1 P12S, 0.00406 average fractional NGS count over selection days 2 and 3 (reads of this peptide / all reads for the bait, averaged over …; in that of chain 1 P8T, 0.0233 average fractional NGS count over selection days 2 and 3 (reads of this peptide / all reads for the bait, averaged over ….
On the same count and under the same terms, in the case of chain 1 P6K it was 0.00059 average fractional NGS count over selection days 2 and 3 (reads of this peptide / all reads for the bait, averaged over ….
As to chain 1 P6L, the screen value was 0.000189 average fractional NGS count over selection days 2 and 3 (reads of this peptide / all reads for the bait, averaged over ….
Same read-out and setting: in the case of chain 1 R1V it was 0.000334 average fractional NGS count over selection days 2 and 3 (reads of this peptide / all reads for the bait, averaged over ….
Same read-out and setting: in the case of chain 1 P4A it was 0.000327 average fractional NGS count over selection days 2 and 3 (reads of this peptide / all reads for the bait, averaged over …; in that of chain 1 P4V, 0.000427 average fractional NGS count over selection days 2 and 3 (reads of this peptide / all reads for the bait, averaged over ….
The same measure, in the same setting: in the case of chain 1 P9F it was 0.000295 average fractional NGS count over selection days 2 and 3 (reads of this peptide / all reads for the bait, averaged over ….
As to chain 1 P9T, the screen value was 0.000876 average fractional NGS count over selection days 2 and 3 (reads of this peptide / all reads for the bait, averaged over ….
Same read-out and setting: in the case of chain 1 P9I it was 0.000523 average fractional NGS count over selection days 2 and 3 (reads of this peptide / all reads for the bait, averaged over …; in that of chain 1 P7D, 0.00038 average fractional NGS count over selection days 2 and 3 (reads of this peptide / all reads for the bait, averaged over ….
On to chain 1 P7V, for which the screen value is 0.00515 average fractional NGS count over selection days 2 and 3 (reads of this peptide / all reads for the bait, averaged over ….
The same measure, in the same setting: in the case of chain 1 L3G it was 7.18e-05 average fractional NGS count over selection days 2 and 3 (reads of this peptide / all reads for the bait, averaged over …; in that of chain 1 L3V, 0.00179 average fractional NGS count over selection days 2 and 3 (reads of this peptide / all reads for the bait, averaged over …; in that of chain 1 D2N, 0.00453 average fractional NGS count over selection days 2 and 3 (reads of this peptide / all reads for the bait, averaged over ….
Still for that read-out and setting: in the case of chain 1 D2G it was 0.00344 average fractional NGS count over selection days 2 and 3 (reads of this peptide / all reads for the bait, averaged over ….
Same read-out and setting: in the case of chain 1 D2R it was 0.000105 average fractional NGS count over selection days 2 and 3 (reads of this peptide / all reads for the bait, averaged over …; in that of chain 1 P5D, 0.00109 average fractional NGS count over selection days 2 and 3 (reads of this peptide / all reads for the bait, averaged over …; in that of chain 1 D10Y, 0.000449 average fractional NGS count over selection days 2 and 3 (reads of this peptide / all reads for the bait, averaged over ….

The variants in another test derive from B2. The description is as above.
As to chain 1 N10R, the screen value is 0.000511 average fractional NGS count over selection days 2 and 3 (reads of this peptide / all reads for the bait, averaged over ….
As for chain 1 N10H, the screen value was 0.000309 average fractional NGS count over selection days 2 and 3 (reads of this peptide / all reads for the bait, averaged over ….
Same read-out and setting: in the case of chain 1 N10L it was 0.00266 average fractional NGS count over selection days 2 and 3 (reads of this peptide / all reads for the bait, averaged over ….
As for chain 1 N10A, the screen value was 0.000525 average fractional NGS count over selection days 2 and 3 (reads of this peptide / all reads for the bait, averaged over ….
With chain 1 N10W, the screen value was 0.000811 average fractional NGS count over selection days 2 and 3 (reads of this peptide / all reads for the bait, averaged over ….
Still for that read-out and setting: in the case of chain 1 N10Q it was 0.00128 average fractional NGS count over selection days 2 and 3 (reads of this peptide / all reads for the bait, averaged over ….
On the same count and under the same terms, in the case of chain 1 N10P it was 0.000829 average fractional NGS count over selection days 2 and 3 (reads of this peptide / all reads for the bait, averaged over …; in that of chain 1 N10S, 0.000422 average fractional NGS count over selection days 2 and 3 (reads of this peptide / all reads for the bait, averaged over ….
Same read-out and setting: in the case of chain 1 N10D it was 0.0012 average fractional NGS count over selection days 2 and 3 (reads of this peptide / all reads for the bait, averaged over …; in that of chain 1 A6T, 0.000787 average fractional NGS count over selection days 2 and 3 (reads of this peptide / all reads for the bait, averaged over …; in that of chain 1 A6S, 0.000246 average fractional NGS count over selection days 2 and 3 (reads of this peptide / all reads for the bait, averaged over ….
chain 1 A6V: the screen value is 0.00065 average fractional NGS count over selection days 2 and 3 (reads of this peptide / all reads for the bait, averaged over ….
As to chain 1 T1H, the screen value was 0.000542 average fractional NGS count over selection days 2 and 3 (reads of this peptide / all reads for the bait, averaged over ….
Still for that read-out and setting: in the case of chain 1 T1M it was 0.000194 average fractional NGS count over selection days 2 and 3 (reads of this peptide / all reads for the bait, averaged over …; in that of chain 1 T1G, 0.00313 average fractional NGS count over selection days 2 and 3 (reads of this peptide / all reads for the bait, averaged over ….
On the same count and under the same terms, in the case of chain 1 T1L it was 0.0036 average fractional NGS count over selection days 2 and 3 (reads of this peptide / all reads for the bait, averaged over ….
Take chain 1 T1N: the screen value was 0.000793 average fractional NGS count over selection days 2 and 3 (reads of this peptide / all reads for the bait, averaged over ….
The same measure, in the same setting: in the case of chain 1 T1R it was 0.00254 average fractional NGS count over selection days 2 and 3 (reads of this peptide / all reads for the bait, averaged over …; in that of chain 1 T1A, 0.00105 average fractional NGS count over selection days 2 and 3 (reads of this peptide / all reads for the bait, averaged over ….
Same read-out and setting: in the case of chain 1 T1Y it was 0.0102 average fractional NGS count over selection days 2 and 3 (reads of this peptide / all reads for the bait, averaged over …; in that of chain 1 T1V, 0.000977 average fractional NGS count over selection days 2 and 3 (reads of this peptide / all reads for the bait, averaged over ….
On the same count and under the same terms, in the case of chain 1 T1K it was 0.00118 average fractional NGS count over selection days 2 and 3 (reads of this peptide / all reads for the bait, averaged over ….
Take chain 1 P11L: the screen value was 0.000381 average fractional NGS count over selection days 2 and 3 (reads of this peptide / all reads for the bait, averaged over ….
As to chain 1 P11Q, the screen value is 0.000241 average fractional NGS count over selection days 2 and 3 (reads of this peptide / all reads for the bait, averaged over ….
Turning to chain 1 P11W, the screen value was 0.000361 average fractional NGS count over selection days 2 and 3 (reads of this peptide / all reads for the bait, averaged over ….
The same measure, in the same setting: in the case of chain 1 P11N it was 0.000672 average fractional NGS count over selection days 2 and 3 (reads of this peptide / all reads for the bait, averaged over …; in that of chain 1 P11F, 0.00198 average fractional NGS count over selection days 2 and 3 (reads of this peptide / all reads for the bait, averaged over …; in that of chain 1 P11D, 8.69e-05 average fractional NGS count over selection days 2 and 3 (reads of this peptide / all reads for the bait, averaged over ….
Consider chain 1 P11G, for which the screen value was 0.000676 average fractional NGS count over selection days 2 and 3 (reads of this peptide / all reads for the bait, averaged over ….
On the same count and under the same terms, in the case of chain 1 P11T it was 0.00444 average fractional NGS count over selection days 2 and 3 (reads of this peptide / all reads for the bait, averaged over …; in that of chain 1 P11S, 0.000475 average fractional NGS count over selection days 2 and 3 (reads of this peptide / all reads for the bait, averaged over …; in that of chain 1 P11M, 0.000174 average fractional NGS count over selection days 2 and 3 (reads of this peptide / all reads for the bait, averaged over ….
For the variant chain 1 P11H, the screen value is 0.00248 average fractional NGS count over selection days 2 and 3 (reads of this peptide / all reads for the bait, averaged over ….
Still for that read-out and setting: in the case of chain 1 P11Y it was 0.000724 average fractional NGS count over selection days 2 and 3 (reads of this peptide / all reads for the bait, averaged over …; in that of chain 1 P4H, 0.000277 average fractional NGS count over selection days 2 and 3 (reads of this peptide / all reads for the bait, averaged over ….
Consider chain 1 P4L, for which the screen value was 0.000532 average fractional NGS count over selection days 2 and 3 (reads of this peptide / all reads for the bait, averaged over ….
With chain 1 P4V, the screen value is 0.00399 average fractional NGS count over selection days 2 and 3 (reads of this peptide / all reads for the bait, averaged over ….
The same measure, in the same setting: in the case of chain 1 P4I it was 0.00226 average fractional NGS count over selection days 2 and 3 (reads of this peptide / all reads for the bait, averaged over …; in that of chain 1 P4T, 0.000273 average fractional NGS count over selection days 2 and 3 (reads of this peptide / all reads for the bait, averaged over …; in that of chain 1 S15Q, 0.000598 average fractional NGS count over selection days 2 and 3 (reads of this peptide / all reads for the bait, averaged over ….
On the same count and under the same terms, in the case of chain 1 S15R it was 0.000394 average fractional NGS count over selection days 2 and 3 (reads of this peptide / all reads for the bait, averaged over ….
On the same count and under the same terms, in the case of chain 1 S15V it was 0.000359 average fractional NGS count over selection days 2 and 3 (reads of this peptide / all reads for the bait, averaged over ….
For the variant chain 1 S15I, the screen value is 0.000409 average fractional NGS count over selection days 2 and 3 (reads of this peptide / all reads for the bait, averaged over ….
Same read-out and setting: in the case of chain 1 S15E it was 0.00372 average fractional NGS count over selection days 2 and 3 (reads of this peptide / all reads for the bait, averaged over …; in that of chain 1 S15M, 0.00397 average fractional NGS count over selection days 2 and 3 (reads of this peptide / all reads for the bait, averaged over …; in that of chain 1 S15H, 0.000448 average fractional NGS count over selection days 2 and 3 (reads of this peptide / all reads for the bait, averaged over ….
